Measured values published in patent US20220089698A1 (published 2022).

T1: Cyno FcγRIIB (cynomolgus macaque, UniProt A0A140HDN4 43-217)
T1 construct: also called cynomolgus macaque FcγRIIB
T1 sequence: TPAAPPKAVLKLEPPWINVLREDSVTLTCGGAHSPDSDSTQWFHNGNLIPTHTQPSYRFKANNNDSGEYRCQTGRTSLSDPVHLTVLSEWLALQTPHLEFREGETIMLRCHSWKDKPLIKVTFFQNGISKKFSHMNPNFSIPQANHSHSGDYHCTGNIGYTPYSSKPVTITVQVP

T2: Cyno FcγRIIA (cynomolgus macaque, UniProt A0A140HDM9 28-216)
T2 construct: also called cynomolgus macaque FcγRIIA
T2 sequence: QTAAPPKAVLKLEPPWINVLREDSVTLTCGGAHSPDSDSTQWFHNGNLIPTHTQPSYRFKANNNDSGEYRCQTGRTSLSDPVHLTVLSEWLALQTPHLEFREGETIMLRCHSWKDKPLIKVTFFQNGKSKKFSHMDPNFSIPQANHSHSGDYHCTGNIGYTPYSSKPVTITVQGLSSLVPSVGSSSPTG


Assays:
[1] = target: HIV gp120 Bal (HIV-1)
[2] = target: HIV gp120 CAAN (HIV-1)
[3] = target: HIV gp120 REJO (HIV-1)
[4] = target: T1, Cyno FcγRIIB; assay: SPR (Biacore 4000), antibody amine coupled to CM4 chip, receptor as analyte, steady-state fit
[5] = target: T2, Cyno FcγRIIA; assay: as above
[6] = target: HIV gp120 Bal (HIV); assay: single-point ELISA; also: test concentration or dose not given here
[7] = target: HIV gp120 CAAN (HIV); assay: single-point ELISA; also: test concentration or dose not given here

Binder	EC50 [1]	EC50 [2]	EC50 [3]	Kd [4]	Kd [5]	ELISA (A450) [6]	ELISA (A450) [7]
Antibody A-1 (antibody, human IgG1, kappa) heavy: QVQLLQSGAAVTKPGASVRVSCEASGYNIRDYFIHWWRQAPGQGLQWVGWINPKTGQPNNPRQFQGRVSLTRHASWDFDTFSFYMDLKALRSDDTAVYFCARQRSDYWDFDVWGSGTQVTVSSASTKGPSVFPLAPSSKSTSGGTAALGCLVKDYFPEPVTVSWNSGALTSGVHTFPAVLQSSGLYSLSSVVTVPSSSLGTQTYICNVNHKPSNTKVDKKVEPKSCDKTHTCPPCPAPELLAGPDVFLFPPKPKDTLMISRTPEVTCVVVDVSHEDPEVKFNWYVDGVEVHNAKTKPREEQYNSTYRVVSVLTVLHQDWLNGKEYKCKVSNKALPLPEEKTISKAKGQPREPQVYTLPPSREEMTKNQVSLTCLVKGFYPSDIAVEWESNGQPENNYKTTPPVLDSDGSFFLYSKLTVDKSRWQQGNVFSCSVLHEALHSHYTQKSLSLSPGK light: DIQMTQSPSSLSASVGDTVTITCQANGYLNWYQQRRGKAPKLLIYDGSKLERGVPSRFSGRRWGQEYNLTINNLQPEDIATYFCQVYEFVVPGTRLDLKRTVAAPSVFIFPPSDEQLKSGTASVVCLLNNFYPREAKVQWKVDNALQSGNSQESVTEQDSKDSTYSLSSTLTLSKADYEKHKVYACEVTHQGLSSPVTKSFNRGEC	0.06 nM	2.17 nM	2.37 nM	240 nM	1100 nM	–	–
1.10.1-1 (antibody, human IgG1, kappa) heavy: QVQLLQSGAAVTKPGASVRVSCEASGYNIRDYFMHWWRQAPGQGLQWVGWINPKTGQPNNPRQFQGRVSLTRHASWDFDTFSFYMDLKALRSDDTAVYFCARQRSDYWDFDVWGSGTQVTVSSASTKGPSVFPLAPSSKSTSGGTAALGCLVKDYFPEPVTVSWNSGALTSGVHTFPAVLQSSGLYSLSSVVTVPSSSLGTQTYICNVNHKPSNTKVDKKVEPKSCDKTHTCPPCPAPELLAGPDVFLFPPKPKDTLMISRTPEVTCVVVDVSHEDPEVKFNWYVDGVEVHNAKTKPREEQYNSTYRVVSVLTVLHQDWLNGKEYKCKVSNKALPLPEEKTISKAKGQPREPQVYTLPPSREEMTKNQVSLTCLVKGFYPSDIAVEWESNGQPENNYKTTPPVLDSDGSFFLYSKLTVDKSRWQQGNVFSCSVLHEALHSHYTQKSLSLSPGK light: DIQMTQSPSSLSASVGDTVTITCQANGYLNWYQQRRGKAPKLLIYDGSKLERGVPSRFSGRRWGQEYNLTINNLQPEDIATYFCQVYEFVVPGTRLDLKRTVAAPSVFIFPPSDEQLKSGTASVVCLLNNFYPREAKVQWKVDNALQSGNSQESVTEQDSKDSTYSLSSTLTLSKADYEKHKVYACEVTHQGLSSPVTKSFNRGEC	–	–	–	–	–	0.95 A450	0.94 A450
1.9.1-1 (antibody, human IgG1, kappa) heavy: QVQLVQSGAEVKKPGASVRVSCKASGYNIRDYFIHWWRQAPGQGLQWVGWINPKTGQPNNPRQFQGRVSLTRHASWDFDTFSFYMDLKALRSDDTAVYFCARQRSDYWDFDVWGSGTQVTVSSASTKGPSVFPLAPSSKSTSGGTAALGCLVKDYFPEPVTVSWNSGALTSGVHTFPAVLQSSGLYSLSSVVTVPSSSLGTQTYICNVNHKPSNTKVDKKVEPKSCDKTHTCPPCPAPELLAGPDVFLFPPKPKDTLMISRTPEVTCVVVDVSHEDPEVKFNWYVDGVEVHNAKTKPREEQYNSTYRVVSVLTVLHQDWLNGKEYKCKVSNKALPLPEEKTISKAKGQPREPQVYTLPPSREEMTKNQVSLTCLVKGFYPSDIAVEWESNGQPENNYKTTPPVLDSDGSFFLYSKLTVDKSRWQQGNVFSCSVLHEALHSHYTQKSLSLSPGK light: DIQMTQSPSSLSASVGDTVTITCQANGYLNWYQQRRGKAPKLLIYDGSKLERGVPSRFSGRRWGQEYNLTINNLQPEDIATYFCQVYEFVVPGTRLDLKRTVAAPSVFIFPPSDEQLKSGTASVVCLLNNFYPREAKVQWKVDNALQSGNSQESVTEQDSKDSTYSLSSTLTLSKADYEKHKVYACEVTHQGLSSPVTKSFNRGEC	–	–	–	–	–	1.08 A450	0.98 A450
1.11.1-1 (antibody, human IgG1, kappa) heavy: QVQLLQSGAAVTKPGASVRVSCEASGYNIRDYFMHWWRQAPGQGLQWVGWINPKTGQPNNPRQFQGRVSLTRHASWDFDTFSAYMDLKALRSDDTAVYFCARQRSDYWDFDVWGSGTQVTVSSASTKGPSVFPLAPSSKSTSGGTAALGCLVKDYFPEPVTVSWNSGALTSGVHTFPAVLQSSGLYSLSSVVTVPSSSLGTQTYICNVNHKPSNTKVDKKVEPKSCDKTHTCPPCPAPELLAGPDVFLFPPKPKDTLMISRTPEVTCVVVDVSHEDPEVKFNWYVDGVEVHNAKTKPREEQYNSTYRVVSVLTVLHQDWLNGKEYKCKVSNKALPLPEEKTISKAKGQPREPQVYTLPPSREEMTKNQVSLTCLVKGFYPSDIAVEWESNGQPENNYKTTPPVLDSDGSFFLYSKLTVDKSRWQQGNVFSCSVLHEALHSHYTQKSLSLSPGK light: DIQMTQSPSSLSASVGDTVTITCQANGYLNWYQQRRGKAPKLLIYDGSKLERGVPSRFSGRRWGQEYNLTINNLQPEDIATYFCQVYEFVVPGTRLDLKRTVAAPSVFIFPPSDEQLKSGTASVVCLLNNFYPREAKVQWKVDNALQSGNSQESVTEQDSKDSTYSLSSTLTLSKADYEKHKVYACEVTHQGLSSPVTKSFNRGEC	–	–	–	–	–	0.93 A450	0.75 A450
Antibody 1.52.64-1 (antibody, human IgG1, kappa) heavy: QVQLLQSGAAVTKPGASVRVSCEASGYNIRDYFIHWWRQAPGQGLQWVGWINPKTGQPNNPRQFQGRVSLTRHASFDFDTFSFYMDLKALRSDDTAVYFCARQRSDYWDFDVWGSGTQVTVSSASTKGPSVFPLAPSSKSTSGGTAALGCLVKDYFPEPVTVSWNSGALTSGVHTFPAVLQSSGLYSLSSVVTVPSSSLGTQTYICNVNHKPSNTKVDKKVEPKSCDKTHTCPPCPAPELLAGPDVFLFPPKPKDTLMISRTPEVTCVVVDVSHEDPEVKFNWYVDGVEVHNAKTKPREEQYNSTYRVVSVLTVLHQDWLNGKEYKCKVSNKALPLPEEKTISKAKGQPREPQVYTLPPSREEMTKNQVSLTCLVKGFYPSDIAVEWESNGQPENNYKTTPPVLDSDGSFFLYSKLTVDKSRWQQGNVFSCSVLHEALHSHYTQKSLSLSPGK light: DIQMTQSPSSLSASVGDTATITCQANGYLNWYQQRRGKAPKLLIYDGSKLERGVPSRFSGRRWGQEYNLTINNLQPEDIATYFCQVYEFVVPGTRLDLKRTVAAPSVFIFPPSDEQLKSGTASVVCLLNNFYPREAKVQWKVDNALQSGNSQESVTEQDSKDSTYSLSSTLTLSKADYEKHKVYACEVTHQGLSSPVTKSFNRGEC	0.07 nM	3.79 nM	4.02 nM	280 nM	1180 nM	–	–
Antibody A (antibody, human IgG1, kappa) heavy: not shown light: DIQMTQSPSSLSASVGDTVTITCQANGYLNWYQQRRGKAPKLLIYDGSKLERGVPSRFSGRRWGQEYNLTINNLQPEDIATYFCQVYEFVVPGTRLDLKRTVAAPSVFIFPPSDEQLKSGTASVVCLLNNFYPREAKVQWKVDNALQSGNSQESVTEQDSKDSTYSLSSTLTLSKADYEKHKVYACEVTHQGLSSPVTKSFNRGEC	0.05 nM	1.84 nM	2.21 nM	895 nM	2000 nM	–	–
